Target: plasma proteins (rat (endogenous in serum))
Test: SEC

Row | Substance | percent plasma protein binding
1 | soluble vWA domain of tumor endothelium marker-8 (sTEM8) (from UniProt Q9H6X2 38-220) (domain or fragment) | > 90%
2 | L56A mutant of sTEM8 (from UniProt Q9H6X2 38-220) (domain or fragment) | > 90%

Reference: paper PMC3107238
